Where a chain is given by its changes, count along the chain named.
T1: VEGFR-3-Fc (UniProt P35916 25-328)
T1 construct: domain: first three Ig domains; conditioned supernatant of 293T cells; also called VEGFR-3-Fc fusion protein; not shown: Fc fragment of the pIg vector
T1 sequence (looked up): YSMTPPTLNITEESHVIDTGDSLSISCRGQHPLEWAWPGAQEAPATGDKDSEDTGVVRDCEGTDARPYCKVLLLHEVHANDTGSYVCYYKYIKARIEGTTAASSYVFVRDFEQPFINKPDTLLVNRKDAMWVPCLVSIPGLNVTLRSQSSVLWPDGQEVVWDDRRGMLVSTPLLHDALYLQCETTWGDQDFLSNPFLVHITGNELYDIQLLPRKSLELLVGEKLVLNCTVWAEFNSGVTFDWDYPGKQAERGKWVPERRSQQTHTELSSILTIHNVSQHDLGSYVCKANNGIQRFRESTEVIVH

B1: 22-14 (ligand)
chain: AHYNTEILKSIDNEWRKTQCMPREVCIDVGKEFGVATNTFFKPPCVSVYRCGGCCNDEGLECMNTSTSYLSKTLFEITVPLSQGPKPVTISFANHTSCRCMSKLD
B2: 23-14 (ligand)
chain: B1 chain with F33Y, G34P, V35D, A36E, T37I, N38E, T39Y, F40I
B3: 52-16 (ligand)
chain: B1 chain with R23I, V25T, C26L, I27V, V29I, G30F, K31Q, D57S, E61Q
B4: 72-14 (ligand)
chain: B1 chain with A1G, H2Q, Y3N, N4H, T5H, I7V, L8V
B5: 21-10 (ligand)
chain: AHYNTEILKSIDNEWRKTQCMPREVCIDVGKEYPDEIEYIFKPSCVPLMRCGGCCNDEGLECMNTSTSYLSKTLFEITVPLSQGPKPVTISFLQHNKCECRPKKD
B6: 52-14 (ligand)
chain: B1 chain with R23I, V25T, C26L, I27V, V29I, G30F, K31Q
B7: 73-14 (ligand)
chain: GQNHHEVVKSIDNEWRKTQCMPREVCIDVGKEYPDEIEYIFKPPCVSVYRCGGCCNDEGLECMNTSTSYLSKTLFEITVPLSQGPKPVTISFANHTSCRCMSKLD
B8: 23-12 (ligand)
chain: B5 chain with S44P, P47S, L48V, M49Y, D57S, E61Q
B9: 22-12 (ligand)
chain: B1 chain with D57S, E61Q, A93L, N94Q, T96N, S97K, R99E, M101R, S102P, L104K
B10: 73-16 (ligand)
chain: B7 chain with D57S, E61Q
B11: 51-14 (ligand)
chain: AHYNTEILKSIDNEWRKTQCMPIETLVDIFQEYPDEIEYIFKPSCVPLMRCGGCCNDEGLECMNTSTSYLSKTLFEITVPLSQGPKPVTISFANHTSCRCMSKLD
B12: 53-14 (ligand)
chain: B11 chain with S44P, P47S, L48V, M49Y
B13: 24-10 (ligand)
chain: B5 chain with Y33F, P34G, D35V, E36A, I37T, E38N, Y39T, I40F
B14: 21-14 (ligand)
chain: B11 chain with I23R, T25V, L26C, V27I, I29V, F30G, Q31K
B15: 74-14 (ligand)
chain: GQNHHEVVKSIDNEWRKTQCMPREVCIDVGKEFGVATNTFFKPSCVPLMRCGGCCNDEGLECMNTSTSYLSKTLFEITVPLSQGPKPVTISFANHTSCRCMSKLD
B16: 21-16 (ligand)
chain: B11 chain with I23R, T25V, L26C, V27I, I29V, F30G, Q31K, D57S, E61Q
B17: 23-16 (ligand)
chain: B7 chain with G1A, Q2H, N3Y, H4N, H5T, V7I, V8L, D57S, E61Q
B18: 23-10 (ligand)
chain: B5 chain with S44P, P47S, L48V, M49Y
notes: clone entry
B19: 22-10 (ligand)
chain: B1 chain with A93L, N94Q, T96N, S97K, R99E, M101R, S102P, L104K
B20: 24-16 (ligand)
chain: B1 chain with P44S, S47P, V48L, Y49M, D57S, E61Q
B21: 71-14 (ligand)
chain: B7 chain with P44S, S47P, V48L, Y49M
B22: 72-16 (ligand)
chain: B15 chain with S44P, P47S, L48V, M49Y, D57S, E61Q
B23: 53-16 (ligand)
chain: B11 chain with S44P, P47S, L48V, M49Y, D57S, E61Q
B24: 24-14 (ligand)
chain: B1 chain with P44S, S47P, V48L, Y49M
B25: 33-1 (ligand)
chain: GQNHHEVVKSIDNEWRKTQCMPIETLVDIFQEYPDEIEYIFKPPCVSVYRCGGCCNDEGLECVPTEESNITMQIMRIKPHQGQHIGEMSFLQHNKCECRPKKD
B26: 33-3 (ligand)
chain: B25 chain with D57S, E61Q
B27: 22-2 (ligand)
chain: AHYNTEILKSIDNEWRKTQCMPREVCIDVGKEFGVATNTFFKPPCVSVYRCGGCCNDEGLECMNTSTSYLSKTLFEIKPHQGQHIGEMSFLQHNKCECRPKKD
B28: 73-9 (ligand)
chain: GQNHHEVVKSIDNEWRKTQCMPREVCIDVGKEYPDEIEYIFKPPCVSVYRCGGCCNDEGLECVPTEESNITMQIMRITVPLSQGPKPVTISFLQHNKCECRPKKD

Molecular target: T2, VEGFR-1-Fc (UniProt P17948 27-338)
T2 construct: domain: first three Ig domains; expressed in Drosophila S2 cells, purified on Protein A sepharose; also called VEGFR-1-Fc fusion protein; not shown: Fc fragment from the Signal-pIgPlus vector
T2 sequence (P17948 27-338): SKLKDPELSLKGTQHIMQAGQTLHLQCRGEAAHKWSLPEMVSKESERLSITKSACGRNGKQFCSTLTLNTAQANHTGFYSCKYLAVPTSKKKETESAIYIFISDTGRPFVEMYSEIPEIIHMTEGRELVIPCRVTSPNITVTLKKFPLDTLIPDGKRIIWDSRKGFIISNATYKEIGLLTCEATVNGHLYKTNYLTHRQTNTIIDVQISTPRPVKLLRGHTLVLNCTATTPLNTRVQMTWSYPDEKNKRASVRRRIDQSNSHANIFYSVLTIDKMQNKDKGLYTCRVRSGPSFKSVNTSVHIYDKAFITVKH
Assay: receptor-Fc IP
Method: (§1) The binding assay procedure was identical to the immunoprecipitation using pentahistidine antibody described in Example 2, apart from the composition of the immunoprecipitation (IP) mixes. The IP mixes used for the receptor binding analysis were as follows: For VEGFR-1 binding assays, the IP mix was phosphate buffered saline (PBS) containing 1.5% BSA, 0.06% Tween 20, 3 μg/ml heparin and 400 ng/ml VEGFR-1-Fc fusion protein (100 μl of this IP mix was added to 200 μl of sample supernatant); for VEGFR-2 binding assays, the IP mix was 82% conditioned cell supernatant from 293T cells transiently expressing VEGFR-2-Fc fusion protein in mixture with 18% of a PBS solution that contained 5% BSA, 0.2% Tween 20, and 10 μg/ml heparin (250 μl of IP mix was added to 200 μl of sample supernatant); and for VEGFR-3 binding assays, the IP mix was 82% conditioned cell supernatant from 293T cells transiently expressing VEGFR-3-Fc fusion protein, 18% of PBS containing 5% BSA, 0.2% Tween 20, and 10 μg/ml heparin (250 μl of IP mix was added to 200 μl of sample supernatant).

| binding result | Binder |
| --- | --- |
| no binding | B1 |
| no binding | B2 |
| no binding | B3 |
| no binding | B4 |
| no binding | B5 |
| no binding | B6 |
| no binding | B7 |
| no binding | B8 |
| no binding | B9 |
| no binding | B10 |
| no binding | B11 |
| no binding | B12 |
| no binding | B13 |
| no binding | B14 |
| no binding | B15 |
| no binding | B16 |
| no binding | B17 |
| no binding | B18 |
| no binding | B19 |
| no binding | B20 |
| no binding | B21 |
| no binding | B22 |
| no binding | B23 |
| no binding | B24 |
| no binding | B25 |
| no binding | B26 |
| no binding | B27 |
| no binding | B28 |

Molecular target: T3, VEGFR-2-Fc (UniProt P35968 20-322)
T3 construct: domain: first 3 Ig domains; conditioned supernatant of 293T cells; also called VEGFR-2-Fc fusion protein; not shown: Fc fragment of the pIg vector
T3 sequence (P35968 20-322): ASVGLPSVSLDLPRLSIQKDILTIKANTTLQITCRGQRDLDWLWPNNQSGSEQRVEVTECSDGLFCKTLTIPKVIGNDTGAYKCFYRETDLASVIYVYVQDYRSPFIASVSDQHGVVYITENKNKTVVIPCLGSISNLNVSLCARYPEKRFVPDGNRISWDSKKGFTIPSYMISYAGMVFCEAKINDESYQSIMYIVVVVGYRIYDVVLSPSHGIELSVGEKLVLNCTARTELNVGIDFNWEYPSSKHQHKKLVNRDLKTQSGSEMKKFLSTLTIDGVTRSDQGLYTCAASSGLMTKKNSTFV
Assay: receptor-Fc IP
Method: as §1

| binding result | Binder |
| --- | --- |
| binds | B1 |
| binds | B2 |
| binds | B3 |
| binds | B4 |
| no binding | B5 |
| no binding | B6 |
| no binding | B7 |
| binds | B8 |
| binds | B9 |
| no binding | B10 |
| no binding | B11 |
| no binding | B12 |
| no binding | B13 |
| no binding | B14 |
| no binding | B15 |
| no binding | B16 |
| no binding | B17 |
| binds | B18 |
| binds | B19 |
| no binding | B20 |
| no binding | B21 |
| binds | B22 |
| no binding | B23 |
| no binding | B24 |
| binds | B25 |
| binds | B26 |
| binds | B27 |
| no binding | B28 |

Molecular target: T1, VEGFR-3-Fc
Assay: receptor-Fc IP
Method: as §1

| binding result | Binder |
| --- | --- |
| binds | B1 |
| no binding | B2 |
| binds | B3 |
| binds | B4 |
| no binding | B5 |
| binds | B6 |
| no binding | B7 |
| no binding | B8 |
| binds | B9 |
| no binding | B10 |
| no binding | B11 |
| no binding | B12 |
| no binding | B13 |
| no binding | B14 |
| no binding | B15 |
| no binding | B16 |
| no binding | B17 |
| no binding | B18 |
| binds | B19 |
| no binding | B20 |
| no binding | B21 |
| binds | B22 |
| no binding | B23 |
| no binding | B24 |
| no binding | B25 |
| no binding | B26 |
| binds | B27 |
| no binding | B28 |

Source: patent US20080058263A1 (published 2008)
